Test [1] addresses T1, single chain CD3εγ heterodimer (UniProt P07766 23-118; P09693 23-103).
T1 chain: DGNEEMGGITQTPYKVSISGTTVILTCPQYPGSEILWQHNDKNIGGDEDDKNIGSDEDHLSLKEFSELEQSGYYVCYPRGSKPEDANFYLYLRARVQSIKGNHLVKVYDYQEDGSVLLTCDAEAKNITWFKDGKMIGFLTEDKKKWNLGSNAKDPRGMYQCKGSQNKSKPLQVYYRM
As to the kind of experiment: Biacore.

Test [2] deals with T1, single chain CD3εγ heterodimer. As to the kind of experiment: Biacore.

Changes are numbered by the printed parent chain. Where two headings read alike, the source gives them in different places.

B1: Unmasked v4 TDB (bispecific antibody, V domains shown)
VH 1: EVQLVQSGAEVKKPGASVKVSCKASGFTFTSYYIHWVRQAPGQGLEWIGWIYPENDNTKYNEKFKDRVTITADTSTSTAYLELSSLRSEDTAVYYCARDGYSRYYFDYWGQGTLVTVSS
VL 1: DIVMTQSPDSLAVSLGERATINCKSSQSLLNSRTRKNYLAWYQQKPGQSPKLLIYWTSTRKSGVPDRFSGSGSGTDFTLTISSLQAEDVAVYYCKASFILRTFGQGTKVEIK
VH 2: EVQLVESGGGLVQPGGSLRLSCAASGYTFTSYNMHWVRQAPGKGLEWVGAIYPGNGDTSYNQKFKGRFTISVDKSKNTLYLQMNSLRAEDTAVYYCARVVYYSNSYWYFDVWGQGTLVTVSS
VL 2: DIQMTQSPSSLSASVGDRVTITCRASSSVSYMHWYQQKPGKAPKPLIYAPSNLASGVPSRFSGSGSGTDFTLTISSLQPEDFATYYCQQWSFNPPTFGQGTKVEIK
Consider B1, for which the Kd in test [1] and in test [2] was 119 nM in each case.

B2: Unmasked v5 TDB (bispecific antibody, V domains shown)
VH 1: B1 VH 1
VL 1: B1 VL 1 with A96Q, F98A
VH 2: B1 VH 2
VL 2: B1 VL 2
For B2, the Kd in test [1] and in test [2] was 18 nM throughout.

B3: Unmasked v3 TDB (bispecific antibody, V domains shown)
VH 1: B1 VH 1
VL 1: B1 VL 1 with A96Q, I99A
VH 2: B1 VH 2
VL 2: B1 VL 2
B3: the Kd in test [1] and in test [2] was 3.5 nM throughout.

B4: Unmasked v1 TDB (bispecific antibody, V domains shown)
VH 1: B1 VH 1
VL 1: B1 VL 1 with A96Q
VH 2: B1 VH 2
VL 2: B1 VL 2
For B4, the Kd in test [1] and in test [2] was 1.2 nM in each case.

(Values after patent US20180057593A1 (published 2018).)
